Test results taken from publication PMC6050966, “Structure-Function Analysis of the Curli Accessory Protein CsgE Defines Surfaces Essential for Coordinating Amyloid Fiber Formation” (mBio, 2018).

Key:
[1] = target: CsgE W48A (E. coli MC4100); assay: native gel or EMSA; native PAGE of purified CsgE (monomer peak) incubated at 4°C or 25°C for various times
[2] = target: CsgE F79A (E. coli MC4100); assay: as above
[3] = target: 6x-His-tagged CsgA lacking the 20-residue N-terminal signal sequence (E. coli) (UniProt P28307)
P0AE95 [4] = assay: SEC; Superdex 200 10/300, 50 mM potassium phosphate, 150 mM NaCl, pH 7.4; purified CsgE (20 µM) incubated at 25°C for 5 h to 28 h; monomer to nonamer
P0AE95 [5] = assay: SEC; Superdex 200 10/300, 50 mM potassium phosphate, 150 mM NaCl, pH 7.4; purified CsgE (20 µM) incubated at 37°C; monomer to nonamer and larger oligomers
[6] = target: T1, 6x-His-tagged CsgA lacking the 20-residue N-terminal signal sequence (E. coli, UniProt P28307 21-151); assay: NMR titration; 1H-15N HSQC chemical shift perturbation at one ratio: 15N-labeled WT CsgE (80 µM, 0.4 M arginine) with or without unlabeled CsgA (80 µM); settings: both partners purified
T1 construct: Freshly purified, unfolded monomer; also called unlabeled CsgA; monomeric CsgA

P0AE95 [7] = assay: SEC-MALS; Superdex 200 Increase 10/300 GL, 0.3 ml/min; protein at 2 mg/ml in 50 mM KHPO4 pH 7.3 with and without 150 mM NaCl
[8] = target: T2, WT CsgE (6x-His-tagged, E. coli MC4100) (E. coli MC4100), P0AE95; assay: SEC; Superdex 200 10/300, 50 mM potassium phosphate, 150 mM NaCl, pH 7.4; purified CsgE (20 µM) incubated at 25°C for 5 h to 28 h; monomer to nonamer; settings: remark: other sources report otherwise
T2 chain: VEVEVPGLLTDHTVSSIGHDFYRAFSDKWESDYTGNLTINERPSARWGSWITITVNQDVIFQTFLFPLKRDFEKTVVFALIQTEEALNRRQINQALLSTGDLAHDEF

[9] = target: T2, WT CsgE (6x-His-tagged, E. coli MC4100) …; assay: native gel or EMSA; native PAGE of purified CsgE (monomer peak) incubated at 4°C or 25°C for various times; settings: remark: other sources report otherwise
[10] = target: T2, WT CsgE (6x-His-tagged, E. coli MC4100) …; assay: SEC; Superdex 200 10/300, 50 mM potassium phosphate, 150 mM NaCl, pH 7.4; purified CsgE (20 µM) immediately after purification and kept at 4°C for up to 20 days; monomer to nonamer; settings: remark: other sources report otherwise
[11] = target: T2, WT CsgE (6x-His-tagged, E. coli MC4100) …; assay: SEC; Superdex 200 10/300, 50 mM potassium phosphate, 150 mM NaCl, pH 7.4; purified CsgE (20 µM) incubated at 37°C; monomer to nonamer and larger oligomers; settings: remark: other sources report otherwise
[12] = target: T2, WT CsgE (6x-His-tagged, E. coli MC4100) …; assay: SEC-MALS; Superdex 200 Increase 10/300 GL, 0.3 ml/min; protein at 2 mg/ml in 50 mM KHPO4 pH 7.3 with and without 150 mM NaCl; settings: remark: other sources report otherwise

T1 sequence (P28307 21-151): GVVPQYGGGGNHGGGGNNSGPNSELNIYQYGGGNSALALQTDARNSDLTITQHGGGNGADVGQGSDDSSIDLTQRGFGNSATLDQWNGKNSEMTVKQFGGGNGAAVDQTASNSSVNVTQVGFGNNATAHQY
Sequence of 6x-His-tagged CsgA lacking the 20-residue N-terminal signal sequence (E. coli) (P28307 21-151): as above

Molecule CsgE W48A (natural protein) has a stoichiometry N [1] of 9.

In the case of CsgE F79A (natural protein), the stoichiometry N [2] is reported as 9.

CsgE R47A (natural protein) gave a Thioflavin T fluorescence of CsgA polymerization (25°C, 48 h): T50 of CsgA with CsgE R47A relative to WT CsgE (% decrease of T50 relative to WT CsgE) [3] of over 50.

B1: WT CsgE (6x-His-tagged, E. coli MC4100) (natural protein, UniProt P0AE95 23-129, looked up)
chain: T2 chain
notes: CsgE, periplasmic curli accessory protein of E. coli MC4100; add 21 for the precursor numbering of P0AE95; 15N-labeled (M9 minimal medium with [15N]ammonium sulfate) for NMR; Monomer peak of the S-100 column was used for SEC and native PAGE; also called wild-type CsgE; recombinant WT CsgE
With B1 the “nonamer peak area as percent of monomer peak area, after 5 h at 25°C” value (P0AE95 [4]) was “the nonamer peak area was approximately 20% of the monomer peak area”, the “nonamer peak area as percent of monomer peak area, after 28 h at 25°C” value (P0AE95 [4]) was “the nonamer peak area was approximately 40% of the monomer peak area” and the “loss of monomer peak area within 1 h at 37°C” value (P0AE95 [5]) was “the monomeric peak loses >65% of its area within 1 h of incubation”. For the same molecule, the binding result [6] was “binds” and the “high-molecular-weight aggregate, percent of the loaded mass” value (P0AE95 [7]) was “a large, high-molecular-weight aggregate representing 32% of the loaded mass”.

B2: WT CsgE (6x-His-tagged, E. coli MC4100), P0AE95 23-129 (natural protein)
chain: T2 chain
Work on B2 yielded a stoichiometry N [8] of 9, a stoichiometry N [9] of 9 and a monomer, percent of peak area [10] of over 90%. For the same molecule, the stoichiometry N [10] was 9, the stoichiometry N [11] was 9 and the small oligomer, percent of the mass [12] was 2%.
